Results reported in patent US20120027687A1, “FATTY ACID PROTEIN KINASE C ACTIVATORS AND ANTICOAGULANT FOR THE TREATMENT OF STROKE” (priority 2010, published 2012).

System: ischemic stroke (MCAO)
Experiment: Transient focal ischemia (MCAO) model of stroke
Assay type: in vivo, rat
Conditions: rats; rTPA 6 hours after stroke, with or without bryostatin-1 2 hours later
Method: A transient animal model of focal ischemia was used for these experiments. The middle cerebral artery (MCA) was surgically dissected and occluded in anesthetized rats by ligature, followed by reperfusion after a defined period (about 2 hours). Animal models transient ischemia via occlusion of the MCA (MCAO) are described in, e.g., Sicard and Fisher, Exp. & Transl. Stroke Med. (2009), vol. 1, pp. 1-7.

B1: rTPA: recombinant tissue plasminogen activator, thrombolytic serine protease (protein, UniProt P00750 36-562, looked up)
Tissue-type plasminogen …: SYQVICRDEKTQMIYQQHQSWLRPVLRSNRVEYCWCNSGRAQCHSVPVKSCSEPRCFNGGTCQQALYFSDFVCQCPEGFAGKCCEIDTRATCYEDQGISYRGTWSTAESGAECTNWNSSALAQKPYSGRRPDAIRLGLGNHNYCRNPDRDSKPWCYVFKAGKYSSEFCSTPACSEGNSDCYFGNGSAYRGTHSLTESGASCLPWNSMILIGKVYTAQNPSAQALGLGKHNYCRNPDGDAKPWCHVLKNRRLTWEYCDVPSCSTCGLRQYSQPQFRIKGGLFADIASHPWQAAIFAKHRRSPGERFLCGGILISSCWILSAAHCFQERFPPHHLTVILGRTYRVVPGEEEQKFEVEKYIVHKEFDDDTYDNDIALLQLKSDSSRCAQESSVVRTVCLPPADLQLPDWTECELSGYGKHEALSPFYSERLKEAHVRLYPSSRCTSQHLLNRTVTDNMLCAGDTRSGGPQANLHDACQGDSGGPLVCLNDGRMTLVGIISWGLGCGQKDVPGVYTKVTNYLDWIRDNMRP
- mortality 24 hours later: 44%
